This experiment concerns the target MERS-CoV wild type receptor-binding domain (MERS-wtRBD), Twin Strep tagged (MERS-CoV). Nature of the experiment: ELISA (FIG. 9). For orientation: An ELISA detects its analyte on a solid surface through an enzyme-linked reagent.

The results in this text go back to patent US20240386992A1 (MAX DELBR CK CENTRUM F R MOLEKULARE MEDIZIN IN DER …, published 2024).

B1: LCA60 (antibody, V domains shown)
VH: EVQLLESGGGLVKPGGSLRLSCEASGLTFSNVWMSWVRQAPGKGLEWVGRIKRKSEGATTDYGAPVKGRFTLSRDDSKNTVYLQMNSLKIDDTAVYYCSTLTRGGDVWSSSYYFDYWGQGALVTVSS
VL: QSALTQPASVSGSPGQSITISCTGTSSDVGTYDLVSWYQQHPGKSPKLMIYADIKRPSGVSHRFSGSKSGNTASLTISGLQSADEADYYCCLYAGSSTSVIFGGGTKVT
Regarding B1, the binding result is “binds”.

B2: D12 (antibody, V domains shown)
VH: EVKLVESGGGLVKPGGSLKLSCAASGFTFSSYAMSWVRQTPEKRLEWVATISSGGTYTYYPDSVKGRFTISRDNAENTLYLQMSSLRSEDTAMYYCVRDGNSMDYWGQGTSVTVSS
VL: DIQMTQTTSSLSASLGDRVTIICRASQDINNYLNWYQQKPDGTVKLLIYYTSRLHSGVPSRFSGSGSGSDYSLTISNLEQEDIATYFCQQANTLPPTFGAGTKLELR
B2: the binding result is given as “binds”.
